Assay [1] deals with shbg-db/db transgenic mice. The experiment in a line: Obese diabetic db/db mice expressing human SHBG (shbg-db/db) compared with db/db. It is filed as in vivo. The text has this: To shed light to this issue, the inventors developed a unique mouse model that expresses the human SHBG gene and develops obesity, by crossing the human SHBG transgenic mice with the db/db mice.
The human SHBG transgenic mice is the one disclosed by Jänne et al, “Human Sex-Hormone-Binding Globulin Gen Expression in Transgenic Mice”, Molecular Endocrinology—1998, Vol. No. 12 (1), pp: 123-136.
Briefly, these mice were obtained by microinjecting into the pronuclei of a one-cell mouse embryos, a 4.3 kb portion of a human shbg that comprises the 8 exons of the SHBG plus 0.9 kb 5′ of the translation initiation codon in exon 1 and 0.5 kb 3′ from the polyadenylation sequence in exon 8. The one-cell embryos were obtained superovulating CBA×C57BL6 hybrid females with pregnant mare serum and hCG (Sigma Chemical Co. Mississauga, Canada) and mating them with CBA×C57BL6 males. Female CD-1 mice were used to produce pseudopregnant recipients by mating with vasectomized CD-1 males. Injected embryos were implanted into the pseudopregnant recipient mice using a standard protocol. This human transgenic mice over expresses the human shbg gene in vivo. According to Northern blot analysis, the human shbg transcripts are most abundant in liver and kidney. At the cellular level, the human shbg transgenes are expressed in clusters of hepatocytes located mainly within the periportal region of hepatic lobules and in the epithelial cells lining the proximal convoluted tubules of the kidney.
The db/db mice corresponds to the JAX™ Mice Strain: Diabetic Mice db/db (from Charles River; www.criver.com/en-US/Pages/home.aspx). These mice are characterized by having a point mutation in the leptin receptor. In homozygosis the lack of leptin signaling in the hypothalamus will lead to persistent hyperphagia, obesity, type 2 diabetes, dyslipidaemia and fatty liver. In this mice, diabetes (db), which occurred in an inbred strain of mouse, is inherited as a unit autosomal recessive and is characterized by a metabolic disturbance resembling diabetes mellitus in man. Abnormal deposition of fat at 3 to 4 weeks of age is followed shortly by hyperglycemia, polyuria, and glycosuria.
For performing the assays, mice were maintained under standard conditions with food (Global Diet 2018, Harlan Interfauna Iberica, Barcelona, Spain) and water provided ad libitum and a 12 h light/dark cycle. Experimental procedures were approved by the Institutional Animal Use Subcommittees of Hospital Vall d'Hebron Research Institute and the Universitat Autònoma Barcelona.
The mice for experiments in next illustrated assays were of the following four genotypes: • db/+, which means lean mice heterozygous at point mutation in the leptin receptor. • db/db, which means that the mice were homozygous for the point mutation in the leptin receptor and behave a phenotype of persistent hyperphagia, obesity, type 2 diabetes, dyslipidaemia and fatty liver, • shbg-db/+ lean mice heterozygous at point mutation in the leptin receptor and expressing the shbggene • shbg-db/db, which means that the they over-expressed shbg gene in the manner disclosed above and at the same time they had the phenotype of the homozygous db/db mice in relation to hyperphagia, obesity, type 2 diabetes, dyslipidaemia and fatty liver.
Histology and Immunohistochemistry: For morphological studies, 3 animals of each genotype (db/+, db/db, shbg4-db/+ and shbg4-db/db) were used. Livers and adipose tissue were fixed in 4% paraformaldehyde for 24 h and embedded in paraffin. Serial 5-μm thick sections were used for histological examination and stained with hematoxylin-eosin (H&E).
For immunohistochemistry studies, the paraffin sections were de-waxed and incubated at high power in a microwave oven for 10 min in citrate buffer, pH 6.6. The sections were then cooled at room temperature for 20 min and treated with a 0.03% hydrogen peroxide solution for 7 min, prior to incubation (overnight at 4° C.) with rabbit antibodies against F4/80. […]

Assay [2] relates to human SHBG transgenic mice (shbg). Description: High lipid diet in human SHBG transgenic mice vs wild-type. In kind it is in vivo. Conditions: shbg vs WT mice. The method, then: Wild-type (WT) mice and shbg-mice as in Example 5 were fed with a high lipid diet (50% lipids, from which 46% pig butter and 4% soybean fat) for 8 weeks.
Weight increase along weeks was followed and plotted in FIG. 19 (A), wherein the weight in grams of mice is plotted per week after consumption of the fat diet.
Once mice were sacrificed, visceral adipose tissue (VAT in grams) was analyzed in both animal types. […] VAT was determined as follows: all visceral fat was removed from the animals and it was weighed in a precision balance.

For assay [3], the system named is human mature adipocytes from obese subjects. The experiment in a line: Lipolysis assay (glycerol release) in human mature adipocytes. It is filed as cell-based. The settings on record: SHBG 10 nM and 30 nM, 16h incubation, vs control buffer. The procedure: A similar in vitro experiment as in Example 1 was performed but using human mature adipocytes from obese subjects instead of the HepG2 cells.
The cells were maintained in DMEM supplemented with 10% foetal bovine serum (FBS) and antibiotics, cultured to confluence, washed and incubated with Lipolysis Assay Buffer containing vehicle (control—C), Isoproterenol (positive control—ISO, 3 μM) or SHBG at different final cell culture concentrations (10 nM and 30 nM). SHBG was from native human protein purified from healthy human serums (it included the amino acid sequence SEQ ID NO: 1). After 16h incubation, media was collected and glycerol concentration was assessed using a Glycerol Detection Kit (Zenbio).

For assay [4], the system named is HepG2 hepatoblastoma cells. The experiment in a line: Lipolysis assay (glycerol release) in HepG2 cells. It is filed as cell-based, human. Conditions: SHBG 2.5 nM, 10 nM and 50 nM, 16h incubation, vs vehicle control. The procedure:
Cell culture experiments. Cell culture reagents were from Life Technologies Inc (Invitrogen SA). HepG2 hepatoblastoma cells (catalog no. HB-8065; ATCC) were maintained in DMEM supplemented with 10% foetal bovine serum (FBS) and antibiotics. For experiments, HepG2 cells were cultured to 60%-80% confluence, cells were washed and incubated with Lipolysis Assay Buffer containing vehicle (control—C), Isoproterenol (positive control—ISO, 3 μM) or SHBG at different final cell culture concentrations (2.5 nM, 10 nM and 50 nM). SHBG was from native human protein purified from healthy human serums (it included the amino acid sequence SEQ ID NO: 1). After 16h incubation, media was collected and glycerol concentration was assessed using a Glycerol Detection Kit (Zenbio).
The data are depicted in FIG. 1, wherein the bars indicate the levels of glycerol (Gly) for each assayed sample. Glycerol is a direct measure of the lipolysis level, since is the product obtained when triglycerides are decomposed chemically or enzymatically to glycerol and fatty acids.

The mark [5] stands for this setting: adipose tissue, shbg-db/db vs db/db mice.
Setting [6] is: shbg-db/db vs db/db mice, 4 to 12 weeks of age.
The mark [7] stands for this setting: shbg-db/db vs db/db mice, relative to 18S mRNA.
Setting [8] is: shbg-db/db vs db/db mice, sacrificed at 6 weeks.
Where [9] appears, read: shbg-db/db vs db/db mice, western blot.

B1: SHBG: native human protein purified from healthy human serums (included SEQ ID NO: 1); in mice and HepG2 expressed from human shbg transgene/vector (protein, listed as Homo sapiens)
chain: MESRGPLATSRLLLLLLLLLLRHTRQGWALRPVLPTQSAHDPPAVHLSNGPGQEPIAVMTFDLTKITKTSSSFEVRTWDPEGVIFYGDTNPKDDWFMLGLRDGRPEIQLHNHWAQLTVGAGPRLDDGRWHQVEVKMEGDSVLLEVDGEEVLRLRQVSGPLTSKRHPIMRIALGGLLFPASNLRLPLVPALDGCLRRDSWLDKQAEISASAPTSLRSCDVESNPGIFLPPGTQAEFNLRDIPQPHAEPWAFSLDLGLKQAAGSGHLLALGTPENPSWLSLHLQDQKVVLSSGSGPGLDLPLVLGLPLQLKLSMSRVVLSQGSKMKALALPPLGLAPLLNLWAKPQGRLFLGALPGEDSSTSFCLNGLWAQGQRLDVDQALNRSHEIWTHSCPQSPGNGTDASH
As to B1, in assay [1] (setting [5]), the “Adiponectin mRNA levels” value was “increased significantly”, the “IL6 mRNA levels” value is listed as “reduced in shbg-db/db mice when compared with db/db mice but it was not statistically significant”, the “IL-1β mRNA levels” value is “significantly reduced” and the “TNF-α mRNA levels” value is on record as “significantly reduced”. Further, in assay [1] (genotype shbg-db/+ (lean mice expressing human SHBG), db/+ control 74.99 ± 4.17), the “Triglyceride amounts in liver” value is recorded as 88.88 ± 12.84 Nmol TGs/tissue g. In addition, in assay [1] (genotype shbg-db/db (obese mice expressing human SHBG), db/db control 421.92 ± 58.6), the “Triglyceride amounts in liver” value was found to be 314.64 ± 41.37 Nmol TGs/tissue g. Besides, the “macrophage infiltration (F4/80 immunohistochemistry)” value in assay [1] (liver and adipose tissue, shbg-db/db vs db/db mice) was “less macrophage infiltration in both liver and adipose tissue”. In addition, in assay [1] (shbg-db/db vs db/db mice), the hepatic lipogenesis entry is listed as “Reducing Hepatic Lipogenesis” and the inflammation result is recorded as “Lowers Inflammation”. In addition, in assay [1] (setting [6]), the blood glucose levels result is recorded as “not Blood Glucose Levels” and the “weight gain (body weight)” value is on record as “Reduces Weight Gain”. The hepatic steatosis result in assay [1] (shbg-db/db vs db/db mice, liver histology) is recorded as “Reduces”. In assay [1] (setting [7]), the “liver ACC mRNA levels” value was “significantly lower” and the “liver FAS mRNA levels” value is reported as “significantly lower”. For the same molecule, in assay [1] (setting [8]), the adipocyte size result is given as “Reduces”, the “adipose tissue weight (VAT)” value is recorded as “Reduces Adipose Tissue Weight” and the liver weight entry is “Reduces Liver Weight”. Further, in assay [1] (setting [9]), the “liver ACC protein levels” value is recorded as “reduced ACC protein levels” and the “liver FAS protein levels” value is listed as “significantly lower FAS protein levels”. For the same molecule, the “visceral adipose tissue (VAT)” value in assay [2] (high lipid diet (50% lipids) for 8 weeks) is “wild-type mice had a greater visceral adipose tissue than transgenic animals”. Besides, in assay [2] (high lipid diet (50% lipids)), the “body weight along weeks” value is given as “always a lower weight than wild-type mice” and the obesity entry was “Protects Against Obesity”. In addition, the “final glycerol concentration (lipolysis)” value in assay [3] was “greater than the observed in the non-treated mature adipocytes”. Further, the “lipolysis (glycerol concentration in medium)” value in assay [4] is “increased the lipolysis in HepG2 cells (in a dose-dependent manner)”.

The values above are taken from patent publication US10729634B2, “Sex hormone-binding globulin for use as a medicament” (FUNDACIÓ HOSPITAL UNIVERSITARI VALL D'HEBRON—INSTITUT DE …, priority 2013, dated 2020).
